# Test results: patent US20070160576A1, “IL-17A/F heterologous polypeptides and therapeutic uses thereof” (Genentech, Inc., priority 2001, published 2007)
# “Also recorded” adds a separate entry of the source. Read-outs that look alike come from different tables or passages of the source.
# B1: IL-17F: human IL-17F ligand, SEQ ID NO:4 (protein, listed as Homo sapiens)
# chain: MTVKTLHGPAMVKYLLLSILGLAFLSEAAARKIPKVGHTFFQKPESCPPVPGGSMKLDIGIINENQRVSMSRNIESRSTSPWNYTVTWDPNRYPSEVVQAQCRNLGCINAQGKEDISMNSVPIQQETLVVRRKHQGCSVSFQLEKVLVTVGCTCVTPVIHHVQ
# B2: PRO1122 (IL-17C ligand) (ligand, UniProt Q9P0M4 19-197, looked up)
# chain: HHDPSLRGHPHSHGTPHCYSAEELPLGQAPPHLLARGAKWGQALPVALVSSLEAASHRGRHERPSATTQCPVLRPEEVLEADTHQRSISPWRYRVDTDEDRYPQKLAFAECLCRGCIDARTGRETAALNSVRLLQSLLVLRRRPCSRDGSGLPTPGAFAFHTEFIHVPVGCTCVLPRSV
# B3: PRO21175 (IL-17D ligand) (ligand, UniProt Q8TAD2 16-202, looked up)
# chain: AGAPRAGRRPARPRGCADRPEELLEQLYGRLAAGVLSAFHHTLQLGPREQARNASCPAGGRPADRRFRPPTNLRSVSPWAYRISYDPARYPRYLPEAYCLCRGCLTGLFGEEDVRFRSAPVYMPTVVLRRTPACAGGRSVYTEAYVTIPVGCTCVPEPEKDADSINSSIDKQGAKLLLGPNDAPAGP
# Legend:
# Assay in all cases: Receptor/ligand interaction screening assay (immunoadhesin)
# Format in all cases: binding
# [1] = target: T1, PRO20040 (human IL-17RH2 receptor) (Homo sapiens, UniProt Q8NAC3)
# T1 sequence (Q8NAC3 21-791): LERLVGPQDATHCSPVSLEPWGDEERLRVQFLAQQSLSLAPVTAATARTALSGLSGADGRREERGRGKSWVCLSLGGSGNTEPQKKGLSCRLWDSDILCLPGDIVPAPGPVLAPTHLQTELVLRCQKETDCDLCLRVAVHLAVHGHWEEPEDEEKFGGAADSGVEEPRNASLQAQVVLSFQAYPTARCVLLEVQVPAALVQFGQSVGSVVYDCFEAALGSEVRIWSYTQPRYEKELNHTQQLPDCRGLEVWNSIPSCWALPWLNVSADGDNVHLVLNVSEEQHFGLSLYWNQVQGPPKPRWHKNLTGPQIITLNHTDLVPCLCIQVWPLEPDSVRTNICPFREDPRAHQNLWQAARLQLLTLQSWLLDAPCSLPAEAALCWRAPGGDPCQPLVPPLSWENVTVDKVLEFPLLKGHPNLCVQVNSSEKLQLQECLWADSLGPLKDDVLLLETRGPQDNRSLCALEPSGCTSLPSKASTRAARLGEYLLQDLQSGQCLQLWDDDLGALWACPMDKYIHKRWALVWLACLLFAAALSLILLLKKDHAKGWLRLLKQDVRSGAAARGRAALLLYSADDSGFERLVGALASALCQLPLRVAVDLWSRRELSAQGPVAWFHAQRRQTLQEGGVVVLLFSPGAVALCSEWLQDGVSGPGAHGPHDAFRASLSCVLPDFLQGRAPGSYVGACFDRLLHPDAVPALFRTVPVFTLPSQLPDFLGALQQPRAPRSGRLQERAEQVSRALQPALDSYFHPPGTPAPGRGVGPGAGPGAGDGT
# Protocol: (§1) In general, the assay is performed as follows. A PRO polypeptide of the present invention suspected of being a ligand for a receptor is expressed as a fusion protein containing the Fc domain of human IgG (an immunoadhesin). Receptor-ligand binding is detected by allowing interaction of the immunoadhesin polypeptide with cells (e.g. Cos cells) expressing candidate PRO polypeptide receptors and visualization of bound immunoadhesin with fluorescent reagents directed toward the Fc fusion domain and examination by microscope. Cells expressing candidate receptors are produced by transient transfection, in parallel, of defined subsets of a library of cDNA expression vectors encoding PRO polypeptides that may function as receptor molecules. Cells are then incubated for 1 hour in the presence of the PRO polypeptide immunoadhesin being tested for possible receptor binding. The cells are then washed and fixed with paraformaldehyde. The cells are then incubated with fluorescent conjugated antibody directed against the Fc portion of the PRO polypeptide immunoadhesin (e.g. FITC conjugated goat anti-human-Fc antibody). The cells are then washed again and examined by microscope. A positive interaction is judged by the presence of fluorescent labeling of cells transfected with cDNA encoding a particular PRO polypeptide receptor or pool of receptors and an absence of similar fluorescent labeling of similarly prepared cells that have been transfected with other cDNA or pools of cDNA. If a defined pool of cDNA expression vectors is judged to be positive for interaction with a PRO polypeptide immunoadhesin, the individual cDNA species that comprise the pool are tested individually (the pool is “broken down”) to determine the specific cDNA that encodes a receptor able to interact with the PRO polypeptide immunoadhesin.
# (§2) In another embodiment of this assay, an epitope-tagged potential ligand PRO polypeptide (e.g., 8 histidine “His” tag) is allowed to interact with a panel of potential receptor PRO polypeptide molecules that have been expressed as fusions with the Fc domain of human IgG (immunoadhesins). Following a 1 hour co-incubation with the epitope tagged PRO polypeptide, the candidate receptors are each immunoprecipitated with protein A beads and the beads are washed. Potential ligand interaction is determined by Western blot analysis of the immunoprecipitated complexes with antibody directed towards the epitope tag. An interaction is judged to occur if a band of the anticipated molecular weight of the epitope tagged protein is observed in the Western blot analysis with a candidate receptor, but is not observed to occur with the other members of the panel of potential receptors.
# [2] = target: human IL-17 receptor (IL-17R, PRO1) (Homo sapiens, UniProt Q96F46)
# Protocol: as §1, §2
# [3] = target: T2, PRO5801 (human IL-17RH1 receptor) (Homo sapiens, UniProt Q9NRM6)
# T2 sequence (Q9NRM6 18-502): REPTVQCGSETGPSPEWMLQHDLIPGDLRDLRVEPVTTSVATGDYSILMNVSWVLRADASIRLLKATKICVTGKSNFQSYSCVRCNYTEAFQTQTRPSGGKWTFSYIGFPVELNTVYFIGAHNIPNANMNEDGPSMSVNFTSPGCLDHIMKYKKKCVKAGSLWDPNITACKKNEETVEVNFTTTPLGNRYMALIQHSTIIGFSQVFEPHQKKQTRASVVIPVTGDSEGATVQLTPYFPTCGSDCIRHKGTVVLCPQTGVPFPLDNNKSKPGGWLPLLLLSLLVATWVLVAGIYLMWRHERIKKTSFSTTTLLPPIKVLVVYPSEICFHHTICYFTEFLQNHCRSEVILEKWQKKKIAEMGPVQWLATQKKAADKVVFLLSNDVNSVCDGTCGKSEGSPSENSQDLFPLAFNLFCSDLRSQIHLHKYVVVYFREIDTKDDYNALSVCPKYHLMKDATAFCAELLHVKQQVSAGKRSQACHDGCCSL
# Protocol: as §1, §2
Molecule,binding to IL-17RH2 receptor (PRO20040) [1],binding to IL-17RH2 receptor (PRO20040) ([1]; listed as PRO20110),"binding to human IL-17 receptor (IL-17R, PRO1) [2]",binding to IL-17RH1 receptor (PRO5801) [3],"binding to human IL-17 receptor (IL-17R, PRO1) ([2]; listed as PRO1122)"
B1,has been shown to bind; also recorded: binds to,binds to,binds to,–,–
B2,do not interact,–,do not interact,do not interact,do not bind
B3,do not interact,–,do not interact,do not interact,–
